Data set [1] relates to ZFN SBS 47898 (also printed as SB 47931 in the transduction method) (synthetic construct). Description: cell_activity. As to conditions: ZFN pair with P1; HepG2/C3A, 300K/600K vg/cell, donor A; partner named 47898 or 47931 in text; half-site not stated.
The test system of data set [2] is ZFN SBS 47171 (left/right albumin ZFN, FokI fusion) (synthetic construct). Kind of data set: cell_activity. Particulars: ZFN pair with P2; HepG2/C3A, 300K/600K vg/cell, donor A; 39.81% with donor B; half-site not stated.

With “GCACTAAGGAAAGTGCAAAGTAACTTAGAGTGACTGAAACTTCACAGAATAGGGTTGAAGATTGAATTCATAACTATCCCAAAGACCTATCCATTGCACTATGCTTTATTTAAAAACCACAAAACCTGTGCTGTTGATCTCATAAATAGAACTTGTATTTATATTTATTTTCATTTTAGTCTGTCTTCTTGGTTGCTGTTGATAGACACTAAAAGAGTATTA (double strand)”, the activity in data set [1] and in data set [2] was 43.5 % indels each time.
